# Experiments:
# Assay in all cases: IEDB peptide-MHC binding, purified MHC/competitive/radioactivity; ≥ and ≤ were set here for values at or beyond the usual limits of such assays
# Conditions in all cases: source organism: Bordetella pertussis
# HLA-B*44:03 = target: HLA-B*44:03
# HLA-B*53:01 = target: HLA-B*53:01
# HLA-B*57:01 = target: HLA-B*57:01
# HLA-B*07:02 = target: HLA-B*07:02
# HLA-B*35:01 = target: HLA-B*35:01
# HLA-A*02:01 = target: HLA-A*02:01
Sequence,IC50 (HLA-B*44:03) [µM],IC50 (HLA-B*53:01) [µM],further results
AAQATVVQR,23.3,,
AEVTDTSPS,41.2,,
ASPRRARRA,,69.9,
ASVSNPGTF,,,IC50 (HLA-B*57:01): 40.8 µM
EPASANTLL,,,IC50 (HLA-B*07:02): 15 µM; IC50 (HLA-B*35:01): 69.9 µM
FEPGITTNY,42.8,,
GAASSYFEY,44,47.3,IC50 (HLA-B*35:01): 2.67 µM
KSLPGGKLP,,,IC50 (HLA-B*57:01): 5.78 µM
LAANGNGQW,,1.67,
LATYQSEYL,,≥ 78.2,
LKRPGSSPM,,,IC50 (HLA-B*07:02): 3.84 µM
MPIDRKTLC,,1.63,
NALAWALML,,,IC50 (HLA-B*35:01): 6.31 µM
PKPKPKAER,,≥ 78.2,
RELSAAANA,21.1,,
TAGATPFDI,,4.91,
YEYIWGLYQ,8.91,,
YVLVKTNMV,,,IC50 (HLA-A*02:01): 3.96 µM

# Reference: the Immune Epitope Database (IEDB)
